According to patent US20190119397A1 (ZIELBIO, published 2019):

Experiments:
[1] = molecular target: plectin-1 on the surface of cancer cells (Homo sapiens, UniProt Q15149 1-4684); assay: cell-based or functional assay
[2] = molecular target: T1, recombinant human Sec8-His protein (human); assay: in vitro binding assay on recombinant human Sec8-His protein (FIG. 3A)
T1 construct: also called recombinant human C-terminal portion of Plectin-1 protein; pET-10NC-Plec C term
T1 chain: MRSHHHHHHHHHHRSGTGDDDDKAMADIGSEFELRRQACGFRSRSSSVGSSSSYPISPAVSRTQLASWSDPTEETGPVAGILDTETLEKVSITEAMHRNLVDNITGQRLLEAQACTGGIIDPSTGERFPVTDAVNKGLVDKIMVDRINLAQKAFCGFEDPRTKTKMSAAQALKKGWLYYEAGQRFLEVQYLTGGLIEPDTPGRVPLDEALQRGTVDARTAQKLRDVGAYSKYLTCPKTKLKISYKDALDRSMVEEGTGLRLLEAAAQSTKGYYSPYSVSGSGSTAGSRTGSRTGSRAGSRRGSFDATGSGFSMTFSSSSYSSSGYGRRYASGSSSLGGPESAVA

plectin-1 on the surface of cancer cells, sequence (Q15149 whole entry): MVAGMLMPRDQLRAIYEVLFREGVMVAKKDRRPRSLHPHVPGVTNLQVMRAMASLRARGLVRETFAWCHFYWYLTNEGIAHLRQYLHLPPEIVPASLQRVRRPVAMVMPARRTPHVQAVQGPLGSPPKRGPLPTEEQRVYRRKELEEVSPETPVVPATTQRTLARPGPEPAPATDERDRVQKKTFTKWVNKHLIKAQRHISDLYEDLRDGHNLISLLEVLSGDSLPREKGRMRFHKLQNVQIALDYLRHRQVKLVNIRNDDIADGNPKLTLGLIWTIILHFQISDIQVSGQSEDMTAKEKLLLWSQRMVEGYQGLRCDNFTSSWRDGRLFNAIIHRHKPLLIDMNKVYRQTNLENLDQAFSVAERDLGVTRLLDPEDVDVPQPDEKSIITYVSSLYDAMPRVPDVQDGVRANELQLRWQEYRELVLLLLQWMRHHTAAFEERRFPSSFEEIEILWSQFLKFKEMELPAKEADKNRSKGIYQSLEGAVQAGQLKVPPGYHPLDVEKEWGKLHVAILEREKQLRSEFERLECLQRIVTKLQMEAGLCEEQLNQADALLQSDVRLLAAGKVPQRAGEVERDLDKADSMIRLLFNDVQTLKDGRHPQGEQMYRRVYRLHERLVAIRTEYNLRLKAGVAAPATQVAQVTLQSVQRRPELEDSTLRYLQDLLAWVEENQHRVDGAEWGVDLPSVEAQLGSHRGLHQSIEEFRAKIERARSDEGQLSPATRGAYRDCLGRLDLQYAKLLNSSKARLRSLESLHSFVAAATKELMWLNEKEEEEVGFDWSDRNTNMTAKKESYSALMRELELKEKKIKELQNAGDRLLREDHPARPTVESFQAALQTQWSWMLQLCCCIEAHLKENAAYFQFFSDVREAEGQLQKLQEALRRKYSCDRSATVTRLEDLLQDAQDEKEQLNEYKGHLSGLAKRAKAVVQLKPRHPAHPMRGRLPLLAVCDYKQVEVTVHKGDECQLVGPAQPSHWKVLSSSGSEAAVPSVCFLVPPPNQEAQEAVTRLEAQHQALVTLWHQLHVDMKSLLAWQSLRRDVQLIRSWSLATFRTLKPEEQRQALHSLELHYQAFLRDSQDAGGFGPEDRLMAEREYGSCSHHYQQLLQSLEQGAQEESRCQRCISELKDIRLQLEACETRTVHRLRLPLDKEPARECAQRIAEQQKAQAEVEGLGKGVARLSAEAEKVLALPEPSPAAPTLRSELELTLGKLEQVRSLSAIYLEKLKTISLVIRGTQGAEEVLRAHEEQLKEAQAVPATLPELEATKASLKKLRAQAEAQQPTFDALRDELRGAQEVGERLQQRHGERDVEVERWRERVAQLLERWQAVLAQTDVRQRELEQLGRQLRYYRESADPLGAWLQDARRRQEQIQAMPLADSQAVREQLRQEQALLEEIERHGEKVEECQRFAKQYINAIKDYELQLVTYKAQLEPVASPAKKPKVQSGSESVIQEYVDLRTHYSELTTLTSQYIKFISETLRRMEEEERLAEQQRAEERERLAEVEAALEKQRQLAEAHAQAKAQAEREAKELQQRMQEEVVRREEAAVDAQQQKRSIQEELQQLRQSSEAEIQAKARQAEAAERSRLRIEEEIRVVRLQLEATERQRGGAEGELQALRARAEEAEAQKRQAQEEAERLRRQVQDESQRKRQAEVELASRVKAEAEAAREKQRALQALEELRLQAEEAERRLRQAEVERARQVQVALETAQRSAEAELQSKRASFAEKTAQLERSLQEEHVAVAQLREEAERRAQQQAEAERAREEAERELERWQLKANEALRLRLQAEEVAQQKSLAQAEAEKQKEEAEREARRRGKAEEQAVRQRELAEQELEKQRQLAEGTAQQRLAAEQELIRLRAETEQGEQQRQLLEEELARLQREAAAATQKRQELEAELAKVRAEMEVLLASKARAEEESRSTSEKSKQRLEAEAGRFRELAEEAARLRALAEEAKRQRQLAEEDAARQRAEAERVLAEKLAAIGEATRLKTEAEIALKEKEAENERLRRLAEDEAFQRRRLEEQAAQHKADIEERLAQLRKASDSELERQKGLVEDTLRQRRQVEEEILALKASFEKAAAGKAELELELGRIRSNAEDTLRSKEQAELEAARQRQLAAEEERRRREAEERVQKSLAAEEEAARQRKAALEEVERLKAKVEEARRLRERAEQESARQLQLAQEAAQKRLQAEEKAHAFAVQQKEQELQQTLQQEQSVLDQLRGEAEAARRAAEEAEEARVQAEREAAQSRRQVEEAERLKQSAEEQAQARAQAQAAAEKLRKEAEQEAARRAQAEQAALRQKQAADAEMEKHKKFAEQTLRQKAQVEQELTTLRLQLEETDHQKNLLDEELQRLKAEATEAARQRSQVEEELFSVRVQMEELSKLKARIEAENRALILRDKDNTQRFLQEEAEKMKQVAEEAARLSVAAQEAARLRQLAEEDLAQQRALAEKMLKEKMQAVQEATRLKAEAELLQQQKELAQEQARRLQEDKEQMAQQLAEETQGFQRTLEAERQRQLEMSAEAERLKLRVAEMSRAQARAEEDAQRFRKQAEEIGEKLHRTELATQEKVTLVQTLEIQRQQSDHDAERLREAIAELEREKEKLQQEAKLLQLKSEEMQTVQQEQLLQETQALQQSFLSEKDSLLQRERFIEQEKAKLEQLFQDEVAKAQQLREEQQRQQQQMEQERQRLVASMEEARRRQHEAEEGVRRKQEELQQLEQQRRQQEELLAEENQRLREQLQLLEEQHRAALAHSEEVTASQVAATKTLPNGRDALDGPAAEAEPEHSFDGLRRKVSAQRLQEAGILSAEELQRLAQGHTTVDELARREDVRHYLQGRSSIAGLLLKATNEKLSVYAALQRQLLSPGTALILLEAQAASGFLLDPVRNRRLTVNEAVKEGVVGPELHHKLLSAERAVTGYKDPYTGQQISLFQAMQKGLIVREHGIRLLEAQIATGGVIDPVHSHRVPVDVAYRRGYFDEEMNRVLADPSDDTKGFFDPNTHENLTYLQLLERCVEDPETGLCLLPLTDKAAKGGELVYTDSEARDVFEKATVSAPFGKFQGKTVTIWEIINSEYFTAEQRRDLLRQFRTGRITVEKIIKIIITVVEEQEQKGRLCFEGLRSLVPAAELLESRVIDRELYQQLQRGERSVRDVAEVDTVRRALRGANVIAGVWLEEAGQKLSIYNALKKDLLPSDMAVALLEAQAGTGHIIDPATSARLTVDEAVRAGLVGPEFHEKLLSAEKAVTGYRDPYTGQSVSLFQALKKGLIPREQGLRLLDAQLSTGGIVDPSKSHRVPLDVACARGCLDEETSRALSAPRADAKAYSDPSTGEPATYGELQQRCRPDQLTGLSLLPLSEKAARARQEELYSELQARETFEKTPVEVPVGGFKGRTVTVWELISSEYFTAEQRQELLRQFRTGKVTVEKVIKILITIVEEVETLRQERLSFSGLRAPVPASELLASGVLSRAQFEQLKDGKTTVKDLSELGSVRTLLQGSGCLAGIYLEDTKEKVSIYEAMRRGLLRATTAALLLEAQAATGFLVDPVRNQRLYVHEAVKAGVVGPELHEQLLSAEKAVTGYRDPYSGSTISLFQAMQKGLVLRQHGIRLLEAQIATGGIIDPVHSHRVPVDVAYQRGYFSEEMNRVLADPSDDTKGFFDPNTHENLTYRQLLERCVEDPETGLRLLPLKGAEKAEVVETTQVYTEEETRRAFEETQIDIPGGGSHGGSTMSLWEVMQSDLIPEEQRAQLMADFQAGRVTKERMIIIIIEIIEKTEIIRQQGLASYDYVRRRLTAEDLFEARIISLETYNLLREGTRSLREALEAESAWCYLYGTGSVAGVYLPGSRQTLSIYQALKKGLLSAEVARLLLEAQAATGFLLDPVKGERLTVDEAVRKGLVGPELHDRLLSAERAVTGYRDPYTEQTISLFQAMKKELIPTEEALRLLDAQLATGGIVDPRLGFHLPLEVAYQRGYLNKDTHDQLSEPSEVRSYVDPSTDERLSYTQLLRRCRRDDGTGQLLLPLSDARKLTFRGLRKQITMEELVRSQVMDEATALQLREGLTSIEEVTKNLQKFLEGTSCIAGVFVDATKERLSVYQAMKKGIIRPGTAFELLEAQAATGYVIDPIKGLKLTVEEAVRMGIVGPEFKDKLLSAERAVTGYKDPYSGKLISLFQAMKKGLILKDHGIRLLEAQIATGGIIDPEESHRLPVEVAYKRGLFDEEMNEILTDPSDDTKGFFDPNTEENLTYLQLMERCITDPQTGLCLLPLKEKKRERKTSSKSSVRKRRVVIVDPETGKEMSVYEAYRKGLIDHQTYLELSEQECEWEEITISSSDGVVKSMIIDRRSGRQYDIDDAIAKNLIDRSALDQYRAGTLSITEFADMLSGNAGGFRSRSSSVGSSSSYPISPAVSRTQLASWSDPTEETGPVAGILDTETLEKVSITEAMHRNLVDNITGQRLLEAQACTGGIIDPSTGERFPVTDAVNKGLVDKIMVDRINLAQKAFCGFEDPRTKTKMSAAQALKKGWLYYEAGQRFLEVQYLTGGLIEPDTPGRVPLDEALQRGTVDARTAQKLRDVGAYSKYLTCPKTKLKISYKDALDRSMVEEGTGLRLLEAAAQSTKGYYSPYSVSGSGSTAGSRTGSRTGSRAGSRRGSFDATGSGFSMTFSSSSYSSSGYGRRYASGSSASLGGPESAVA

B1: PAb1 (antibody, mouse IgG2b, kappa, V domains shown)
VH: QIQLVQSGPELKKPGETVKISCKASGYTFTDYSMHWVKQAPGKGLKWMGWINTETGEPTYADDFKGRFAFSLETSASTAYLQINNLKNEDTATYFCAPGGFAYWGQGTLVTVSA
VL: DIVMTQAAPSVPVTPGESVSISCRSSKSLLHSNGNTYLYWFLQRPGQSPQLLIYRMSNLASGVPDRFSGSGSGTAFTLRISRVEAEDVGVYYCMQHLEYPLTFGAGTKLELKR
notes: Mouse hybridoma monoclonal antibody; also called Plectin-1 mAb; Plectin-1mAb
Plectin-1mAb EC50 (nM): concentration of mAb that reduced cell viability by 50%, L3.6pl cells, 72 hours [1]: 34 nM | Plectin-1mAb EC50 (nM): concentration of mAb that reduced cell viability by 50%, OVCAR8 cells, 72 hours [1]: 63 nM | Plectin-1mAb EC50 (nM): concentration of mAb that reduced cell viability by 50%, SKOV3 cells, 72 hours [1]: 53 nM | Plectin-1mAb EC50 (nM): concentration of mAb that reduced cell viability by 50%, YapC cells, 72 hours [1]: 43 nM | Kd [2]: < 1 nM
